Paper PMC5628404, “Central catalytic domain of BRAP (RNF52) recognizes the types of ubiquitin chains and utilizes oligo-ubiquitin for ubiquitylation” (Biochemical Journal, 2017)
Values belong to the binder of their own block, whether it stands above or below them.

Target: T1, M1-linked di-ubiquitin chain (M1-Ub2) (human, UniProt P0CG48 1-76; P0CG48 1-76)
T1 construct: ubiquitin unit 1 of 2, joined head to tail (M1 linkage); from polyubiquitin-C (UBC), human; ubiquitin unit 2 of 2, joined head to tail (M1 linkage); One polypeptide of two ubiquitin units joined by a peptide bond G76-M1; also called linear di-ubiquitin; source: E. coli KRX, purified (method of Pickart and Raasi); made in the authors' laboratory
Assay: SPR; Biacore 3000; ubiquitin monomer or ubiquitin chains amine-coupled to a CM5 chip; BRAP as analyte, serially diluted; 10 mM HEPES-NaOH pH 7.5, 150 mM NaCl, 0.005% surfactant P20; 25°C
Conditions: both partners purified

- Kd: 95.1 nM
B1: BRAP (124–569) (RNF52 domain) (domain or fragment, human, UniProt Q7Z569 124-569, looked up)
chain: DQISFFSGNPSVEIVHGIMHLYKTNKMTSLKEDVRRSAMLCILTVPAAMTSHDLMKFVAPFNEVIEQMKIIRDSTPNQYMVLIKFRAQADADSFYMTCNGRQFNSIEDDVCQLVYVERAEVLKSEDGASLPVMDLTELPKCTVCLERMDESVNGILTTLCNHSFHSQCLQRWDDTTCPVCRYCQTPEPVEENKCFECGVQENLWICLICGHIGCGRYVSRHAYKHFEETQHTYAMQLTNHRVWDYAGDNYVHRLVASKTDGKIVQYECEGDTCQEEKIDALQLEYSYLLTSQLESQRIYWENKIVRIEKDTAEEINNMKTKFKETIEKCDNLEHKLNDLLKEKQSVERKCTQLNTKVAKLTNELKEEQEMNKCLRANQVLLQNKLKEEERVLKETCDQKDLQITEIQEQLRDVMFYLETQQKINHLPAETRQEIQEGQINIAMASA
notes: The construct had the tag, a TEV site and a GSSGSSG linker at the N-terminus; after TEV cleavage the linker probably stays on the protein (surmised); also called RNF52 domain of BRAP; central catalytic domain of BRAP; source: cell-free synthesis in E. coli S30 extract, zinc supplemented; purified (HisTrap, TEV cleavage, ion exchange, gel filtration)

- binding result: binds
B2: BRAP (1–592) (full-length) (natural protein, human, UniProt Q7Z569 1-592, looked up)
chain: MSVSLVVIRLELAEHSPVPAGFGFSAAAGEMSDEEIKKTTLASAVACLEGKSPGEKVAIIHQHLGRREMTDVIIETMKSNPDELKTTVEERKSSEASPTAQRSKDHSKECINAAPDSPSKQLPDQISFFSGNPSVEIVHGIMHLYKTNKMTSLKEDVRRSAMLCILTVPAAMTSHDLMKFVAPFNEVIEQMKIIRDSTPNQYMVLIKFRAQADADSFYMTCNGRQFNSIEDDVCQLVYVERAEVLKSEDGASLPVMDLTELPKCTVCLERMDESVNGILTTLCNHSFHSQCLQRWDDTTCPVCRYCQTPEPVEENKCFECGVQENLWICLICGHIGCGRYVSRHAYKHFEETQHTYAMQLTNHRVWDYAGDNYVHRLVASKTDGKIVQYECEGDTCQEEKIDALQLEYSYLLTSQLESQRIYWENKIVRIEKDTAEEINNMKTKFKETIEKCDNLEHKLNDLLKEKQSVERKCTQLNTKVAKLTNELKEEQEMNKCLRANQVLLQNKLKEEERVLKETCDQKDLQITEIQEQLRDVMFYLETQQKINHLPAETRQEIQEGQINIAMASASSPASSGGSGKLPSRKGRSKRGK
notes: The construct had the tag, a TEV site and a GSSGSSG linker at the N-terminus; after TEV cleavage the linker probably stays on the protein (surmised); also called full-length BRAP; BRAP2; source: cell-free synthesis in E. coli S30 extract, zinc supplemented; purified (MBPTrap, TEV cleavage, ion exchange, gel filtration); not shown: MBP, N-terminal, cleaved
